Measured values from article PMC5812716 (2018).
Read-outs that look alike come from different tables or passages of the source. Values belong to the binder of their own block, whether it stands above or below them.

Tests used:
MukB [1] = target: T1, MukB (E. coli, UniProt P22523 1-1486); test: FP
T1 chain: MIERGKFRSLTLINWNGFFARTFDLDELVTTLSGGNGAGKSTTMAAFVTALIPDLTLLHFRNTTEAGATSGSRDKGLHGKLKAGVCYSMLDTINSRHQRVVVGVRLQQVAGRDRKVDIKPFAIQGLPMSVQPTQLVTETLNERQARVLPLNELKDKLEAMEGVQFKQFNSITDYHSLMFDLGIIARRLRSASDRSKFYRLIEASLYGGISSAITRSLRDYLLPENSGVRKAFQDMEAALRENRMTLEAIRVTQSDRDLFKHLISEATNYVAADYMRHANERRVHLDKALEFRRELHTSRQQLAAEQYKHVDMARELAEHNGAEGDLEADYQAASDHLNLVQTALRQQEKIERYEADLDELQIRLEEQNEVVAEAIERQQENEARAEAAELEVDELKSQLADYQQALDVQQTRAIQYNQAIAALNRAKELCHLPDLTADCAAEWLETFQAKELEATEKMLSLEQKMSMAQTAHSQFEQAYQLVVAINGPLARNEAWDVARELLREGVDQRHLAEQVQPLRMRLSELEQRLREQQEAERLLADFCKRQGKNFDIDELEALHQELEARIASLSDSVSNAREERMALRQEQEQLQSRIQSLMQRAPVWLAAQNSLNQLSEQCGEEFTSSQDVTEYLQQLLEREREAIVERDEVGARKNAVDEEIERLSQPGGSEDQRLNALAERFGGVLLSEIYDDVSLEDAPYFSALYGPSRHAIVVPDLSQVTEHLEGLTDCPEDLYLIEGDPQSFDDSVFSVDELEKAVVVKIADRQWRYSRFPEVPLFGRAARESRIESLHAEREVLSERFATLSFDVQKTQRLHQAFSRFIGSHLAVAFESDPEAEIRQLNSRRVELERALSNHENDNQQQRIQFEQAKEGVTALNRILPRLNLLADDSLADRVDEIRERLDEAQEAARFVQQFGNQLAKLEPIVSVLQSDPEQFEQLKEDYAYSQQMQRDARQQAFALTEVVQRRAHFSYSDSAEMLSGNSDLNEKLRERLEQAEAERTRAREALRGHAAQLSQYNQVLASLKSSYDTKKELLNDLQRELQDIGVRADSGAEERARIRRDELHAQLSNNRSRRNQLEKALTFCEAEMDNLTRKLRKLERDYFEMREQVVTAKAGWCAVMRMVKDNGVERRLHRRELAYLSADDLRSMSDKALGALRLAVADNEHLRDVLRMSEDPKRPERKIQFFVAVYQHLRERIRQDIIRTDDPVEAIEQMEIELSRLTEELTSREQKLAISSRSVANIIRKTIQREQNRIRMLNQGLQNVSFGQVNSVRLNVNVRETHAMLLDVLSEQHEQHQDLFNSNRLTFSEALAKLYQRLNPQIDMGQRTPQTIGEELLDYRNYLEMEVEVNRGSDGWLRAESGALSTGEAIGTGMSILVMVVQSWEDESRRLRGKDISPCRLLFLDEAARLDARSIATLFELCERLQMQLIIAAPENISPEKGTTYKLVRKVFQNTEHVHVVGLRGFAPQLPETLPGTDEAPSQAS

MukB [2] = target: T1, MukB

Kd (MukB [1]): 23 nM
B1: Cy5 labelled FC2 (domain or fragment)
chain: AIDMDKNRVFAQRLRQSVQTYFDEPWALTYANADRLLDMRDEEMALRDEEVTGELPEDLEYEEFNEIREQLAAIIEEQLAVYKTRQVPLDLGLVVREYLSQYPRARHFDVARIVIDQAVRLGVAQADFTGLPAKWQPINDYGAKVQAHVIDKY
modifications: Cy5 label (site not stated)

Kd (MukB [1]): 21 nM
B2: Cy5 labelled FN3 (domain or fragment)
chain: REFSTLRLSMQLSIVAGELKRAADAAEEGGDEFHWHRNVYAPLKYSVAEIFDSIDLTQRLMDEQQQQVKDDIAQLLNKDWRAAISSCELLLSETSGTLRELQDTLEAAGDKLQANLLRIQDATMTHDDLHFVDRLVFDLQSKLDRIISWGQQSIDLWIGYDRHVHKFIRT
modifications: Cy5 label (site not stated)

Kd (MukB [2]): 10 nM
B3: Cy5 labelled FN10 (domain or fragment)
chain: MSEFSQTVPELVAWARKNDFSISLPVDRLSFLLAVATLNGERLDGEMSEGELVDAFRHVSDAFEQTSETIGVRANNAINDMVRQRLLNRFTSEQAEGNAIYRLTPLGIGITDYYIRQREFSTLRLSMQLSIVAGELKRAADAAEEGGDEFHWHRNVYAPLKYSVAEIFDSIDLTQRLMDEQQQQVKDDIAQLLNKDWRAAISSCELLLSETSGTLRELQDTLEAAGDKLQANLLRIQDATMTHDDLHFVDRLVFDLQSKLDRIISWGQQSIDLWIGYDRHVHKFIRTAIDMDKNRVFAQRLRQSVQTYFDEPWALTYANADRLLDMRDEEMALRDEEVTGELPED
modifications: Cy5 label (site not stated)

Kd (MukB [2]): 26 nM
B4: Cy5 labelled FN2 (domain or fragment)
chain: MSEFSQTVPELVAWARKNDFSISLPVDRLSFLLAVATLNGERLDGEMSEGELVDAFRHVSDAFEQTSETIGVRANNAINDMVRQRLLNRFTSEQAEGNAIYRLTPLGIGITDYYIRQREFSTLRLSMQLSIVAGELKRAADAAEEGGDEFHWHRNVYAPLKYSVAEIFDSIDLTQRLMDEQQQQVKDDIAQLLNKDWRAAISSCELLLSETSGTLRELQDTLEAAGDKLQANLLRIQDATMTHDDLHFVDRLVFDLQSKLDRIISWGQQSIDLWIGYDRHVHKFIRT
modifications: Cy5 label (site not stated)
